Assay results from US7910549 (INSTITUTE OF VIROLOGY OF THE SLOVAK ACADEMY OF SCIENCES, dated 2011).
Where no end group is shown, it is not given here.

B1: oligopeptide … (aa 75-98) [SEQ ID NO: 106] (peptide)
peptide: EDPPGEEDLPGEEDLPGEEDLPEV

Tests used:
[1] = molecular target: T1, monoclonal antibody M75 (MAb M75), secreted by hybridoma VU-M75, ATCC HB 11128; assay: competition ELISA (peptide against immobilized GST-MN for M75)
T1 construct: Mouse IgG; used as ascites fluid in the ELISA and in the cell adhesion tests; also called MAb 75

[2] = molecular target: B1; assay: phage display (Ph.D.-7): panning on immobilized peptide SEQ ID NO: 106, elution with M75, 5 cycles
[3] = molecular target: T2, GST-MN fusion protein (MN glutathione S-transferase), expressed in bacteria from pGEX-3X-MN (human, UniProt Q16790 38-459); assay: phage display panning on GST-MN, elution with acetazolamide
[4] = molecular target: T2, GST-MN fusion protein (MN glutathione …); assay: competition ELISA on immobilized GST-MN; competitor M75
[5] = molecular target: T2, GST-MN fusion protein (MN glutathione …); assay: phage display (Ph.D.-7): panning on wells coated with GST-MN, elution by acetazolamide, 3 rounds

B1
IC50 [1]: 1 ng/mL

KKMKRRK
binding result [2]: binds

ITFNAQY
binding result [2]: binds

SASAPVS
binding result [2]: binds

GQTRSPL [phage-displayed heptapeptide GQTRSPL (SEQ ID NO: 109)]
binding result [3]: binds

B2: nonapeptide AITFNAQYA [SEQ ID NO: 138] (peptide)
peptide: AITFNAQYA-NH2
notes: Synthetic; phage-selected heptapeptide with alanine added on both sides
binding result [4]: binds

B3: nonapeptide AKKMKRRKA [SEQ ID NO: 137] (peptide)
peptide: AKKMKRRKA-NH2
notes: as for B2
binding result [4]: binds

B4: nonapeptide ASASAPVSA [SEQ ID NO: 139] (peptide)
peptide: ASASAPVSA-NH2
notes: as for B2
binding result [4]: binds

GETRAPL [phage-displayed heptapeptide GETRAPL (SEQ ID NO: 107)]
binding result [5]: binds

GETREPL [phage-displayed heptapeptide GETREPL (SEQ ID NO: 108)]
binding result [5]: binds
